We go through 1 molecule from article PMC8534003, “The Chemokine-Based Peptide, CXCL9(74-103), Inhibits Angiogenesis by Blocking Heparan Sulfate Proteoglycan-Mediated Signaling of Multiple Endothelial Growth Factors” (Cancers, 2021).

The subject of assay [1] is human microvascular endothelial cells (HMVECs). The experiment in a line: Endothelial cell proliferation assay (MTT or ATP lite). It counts as cell-based. As to conditions: EGF, VEGF165 5 ng/mL or FGF-2 3 ng/mL as single stimulus. The protocol:
The ability of the CXCL9-derived peptides to inhibit growth factor-induced proliferation of endothelial cells was assessed. HMVECs were seeded at 5 × 10^3 cells/well in EBM™-2 medium containing 1% (v/v) FCS (proliferation medium). After settling of the cells, they were stimulated with EGF, VEGF165 (both 5 ng/mL) or FGF-2 (3 ng/mL) as a single stimulus or in combination with CXCL9(86-103) or CXCL9(74-103) at 0.3 or 3 µM in proliferation medium or left untreated. HMVECs were also treated with 0.3 or 3 µM of CXCL9(74-103) or 3 µM of CXCL9(86-103) alone to assess the effect of CXCL9-derived peptide treatment on spontaneous proliferation. After 3 to 4 days, a 3-(4,5-dimethylthiazol-2-yl)-2,5-diphenyl tetrazolium bromide (MTT) or ATP lite assay was performed. The ATP lite assay was performed according to the manufacturer’s instructions (Perkin Elmer, Waltham, MA). When MTT was used as substrate, the medium was replaced with 200 µL of MTT solution (RPMI without phenol red containing 0.4 g/L MTT) and the cells were incubated at 37 °C and 5% CO2 in the dark for 4 hours. Then, the MTT solution was discarded and the formed formazan crystals were dissolved in 200 µL acidic propanol [0.04 M HCl, 0.1% (v/v) NP-40 in isopropanol] under continuous shaking in the dark for 10 min. The optical densities were measured at 570 nm and 630 nm (reference wavelength).

The test system is the same in assay [2]. The experiment in a line: xCELLigence chemotaxis assay (HMVEC migration). Conditions: EGF 10 ng/mL, FGF-2 30 ng/mL or VEGF165 10 ng/mL in lower chamber. It counts as cell-based. Here is the method: To evaluate the effect of the CXCL9-derived peptides on growth factor-induced endothelial cell migration, the xCELLigence® real-time cell analyzer (RTCA DP) system (ACEA Biosciences, Inc.; San Diego, CA, USA) was used. First, 160 µL MCDB131 medium (Gibco) supplemented with 0.4% (v/v) FCS (control medium) or 160 µL control medium with 30 ng/mL FGF-2, 10 ng/mL VEGF165 or 10 ng/mL EGF were added to the lower chamber of a cell invasion/migration (CIM)-Plate (ACEA Biosciences, Inc.). After assembly of the lower and upper chamber, 50 µL of serum-free MCDB131 medium was added in the upper wells. Following equilibration of the plate at 37 °C for 1 h, HMVECs were added in the upper chamber at 4 × 10^4 cells in 100 µL/well. CXCL9(74-103) or CXCL9(86-103) was added together with the cells in the upper compartment at a concentration of 0.3 or 3 µM. The assembled CIM-Plate was left at room temperature for 30 min to allow the cells to settle onto the membrane. Finally, the plate was placed in the instrument at 37 °C to monitor cell migration for 15 h. Cell migration from one compartment to the other was recorded (one recording every minute) as changes in electrical impedance. These changes were converted into cell indices, as a measure of cell migration.

Assay [3] shares this test system. The experiment in a line: xCELLigence adhesion assay. It counts as cell-based. As to conditions: 50 ng/mL, 1 h, compared to untreated cells. The protocol:
The wells of an E-plate (ACEA Biosciences, Inc.) were washed and coated with 0.1% (v/v) gelatin in phosphate-buffered saline (PBS) at 37 °C for 1 h. Following a washing step, wells were incubated with 0.1% (v/v) bovine serum albumin (BSA) in PBS at 37 °C for 1 h. After washing, 50 µL basal MCDB131 medium was added and the plate was allowed to equilibrate at 37 °C. HMVECs were harvested and seeded at 4 × 10^4 cells/well together with 50 ng/mL VEGF165 with or without 0.03, 0.3 or 3 µM of CXCL9(74-103) or 3 µM of CXCL9(86-103) in 100 µL control medium (vide supra). Real-time changes in electrical impedance depicted as cell indices, as measure for cell adhesion and spreading, were analyzed using the xCELLigence® RTCA DP System. The adhesion of HMVECs was analyzed 1 h after seeding.

For assay [4] the following is noted: fold lower affinity than FGF-2; cited from earlier work. The text has this:
In our present study, we wanted to explore the potential of CXCL9(74-103), a high affinity GAG-binding peptide, to interfere with angiogenesis by targeting growth factor-induced signaling cascades and associated processes. […] The obtained KD value lies within the range of the concentrations that were applied in the different in vivo and in vitro assays reported here. FGF-2-mediated proliferation, chemotaxis and sprouting in vitro was diminished by CXCL9(74-103). Also in vivo, CXCL9(74-103) treatment attenuated FGF-2-mediated neovascularization in the Matrigel plug assay. The inhibitory mechanism responsible for countering FGF-2 could be that (1) by direct interaction with FGF-2, CXCL9(74-103) can t ...

B1: VEGF165: human recombinant VEGF165 (Biolegend), stimulus (protein)
chain: MNFLLSWVHWSLALLLYLHHAKWSQAAPMAEGGGQNHHEVVKFMDVYQRSYCHPIETLVDIFQEYPDEIEYIFKPSCVPLMRCGGCCNDEGLECVPTEESNITMQIMRIKPHQGQHIGEMSFLQHNKCECRPKKDRARQENPCGPCSERRKHLFVQDPQTCKCSCKNTDSRCKARQLELNERTCRCDKPRR
B1: the “enhancement of proliferation by growth factor alone” value in assay [1] is “significant enhancement of proliferation”. Further, the “enhancement of migration by growth factor alone” value in assay [2] was “significant enhancement of endothelial cell migration”. Besides, in assay [3], the “adhesion in response to VEGF165 alone” value is listed as “HMVECs adhered more profoundly to the substratum compared to untreated cells”. Further, the “affinity for heparin compared to FGF-2” value in assay [4] is reported as 8 fold.
